Measured values published in patent US20230406907A1 (SORRENTO THERAPEUTICS, published 2023).

Molecular target: SARS-CoV-2 S1 subunit (amino acids 16-685 of SEQ ID NO:1, i.e. SEQ ID NO:4) with a carboxy terminal … (SARS-CoV-2, UniProt P0DTC2 16-685)

B1: antibody S1D2 (fully human recombinant monoclonal IgG1, no Fc mutation) (antibody, V domains shown)
VH: EVQLVESGGGLIQPGGSLRLSCAASGFTVSSNYMSWVRQAPGKGLEWVSIIYPGGSTNYADSVKGRFTISRDNSRNTLYLQMNSLRAEDTAVYYCARELGYYGMDVWGQGTTVTVSS
VL: DIQMTQSPSSVSASVGDRVTITCRASQGISTWLVWYQQKPGKAPNLLIYGASSLQSGVPSRFSGSGSGTDFTLTISSLQPEDFATYYCQQANSFPYTFGQGTKLEIK
IC50: 1.87 nM
